Experimental data as given in article doi:10.1101/2023.12.03.569830 (bioRxiv, 2023).

Biological target: T1, surface-exposed domain of TraN (TraN^surf), N-terminal hexa-histidine tag (Salmonella enterica serovar Typhimurium …)
T1 chain: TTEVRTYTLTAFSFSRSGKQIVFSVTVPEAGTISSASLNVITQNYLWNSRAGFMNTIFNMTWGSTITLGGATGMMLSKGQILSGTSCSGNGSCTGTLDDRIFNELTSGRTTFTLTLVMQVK
Experiment: ITC

B1: Nb^traN (TraN-specific nanobody), C-terminal hexa-histidine tag (VHH)
VHH: QVQLQESGGGLVQAGGSLRLSCAASGTIFDGVDMGWYRQAPGKEREFVAGITAGSSTYYADSVKGRFTISRDNAKNTVYLQMNSLKPEDTAVYYCAAYPLDEIGSHDPHSYWGQGTQVTVSS
Which Kd does the source give for B1 here?
The Kd was 4.45 µM.
